# Experimental data as given in US11572394B2, “Peptides for targeting LRP6-overexpressed cells” (PASTEUR INSTITUTE OF IRAN, priority 2020, dated 2023).
# Legend:
# Assay type in all cases: cell-based, human
# [1] = system: Wnt signaling pathway, SW480 cell line; assay: Western blotting of LRP6 and β-catenin proteins with signal densitometry; conditions: SW480, Western blot
# Protocol: (§1) In this example, the effect of exemplary peptides on the expression of LRP6 and downstream genes of the Wnt signaling pathway, such as β-catenin, cyclin D1, and C-MYC, was evaluated at transcription level using real-time PCR and at translation level using Western blotting. The Gapdh gene was used as the reference gene. The expression fold change of more than 2 times (treated cell against untreated cell) was defined as increasing expression, and cases with a fold change of 0.5 to 2 were unchanged, and cases with expression fold change less than 0.5 were considered as a reduction in expression.
# (§2) Also, the effect of exemplary peptides on the levels of LRP6 and β-catenin proteins in the β-catenin/Wnt signaling pathway was investigated by Western blotting. Also, each protein's relative expression was determined through signal densitometry of each Western blot band.
# [2] = system: Wnt signaling pathway, HCT116 cell line; assay: as above; conditions: HCT116, Western blot
# Protocol: as §1, §2
# HUVEC = assay: Cell cycle analysis by flow cytometry (DNA content); conditions: 24 hours
# Protocol: (§3) In this example, the effect of exemplary peptides on the cell cycle was determined through flow cytometry and measurement of DNA content in cells. In this experiment, HCT116, SW480, and HUVEC cell lines were cultured in 24-well plates and treated with 1 mM of each exemplary peptide for 24 hours.
# (§4) The cell proliferation index may be calculated by dividing the percentage of cells present in the S and G2 stages by the percentage of cells in the G1, S, and G2 stages. […] Also, the proliferation index in SW480 and HCT116 cell lines decreased after treatment with exemplary peptides (SEQ ID NOs: 1-4). On the other hand, the decrease in the proliferation index of HUVEC cells was smaller than that of SW480 and HCT116 cell lines.
# SW480 = assay: as above; conditions: SW480, 24 hours
# Protocol: as §3, §4
# HCT116 = assay: as above; conditions: HCT116, 24 hours
# Protocol: as §3, §4
# [3] = system: Wnt signaling pathway, HUVEC cell line; assay: Western blotting of LRP6 and β-catenin proteins with signal densitometry; conditions: Western blot
# Protocol: as §1
# Also, the effect of exemplary peptides on the levels of LRP6 and β-catenin proteins in the β-catenin/Wnt signaling pathway was investigated by Western blotting. Also, each protein's relative expression was determined through signal densitometry of each Western blot band. FIG. 11A illustrates relative expression β-actin, β-catenin, and LRP6 in SW480, HCT116, and HUVEC cell lines, consistent with one or more exemplary embodiments of the present disclosure. Referring to FIG. 11A, the relative expressions of β-catenin and LRP6 in SW480 and HCT116 were higher than HUVEC as a normal cell.
molecule,measurement,setting,value
"DKK1: Dickkopf-related protein 1, natural inhibitor of the Wnt signaling pathway, antagonist ligand of LRP6, negative control (protein) TLNSVLNSNAIKNLPPPLGGAAGHPGSAVSAAPGILYPGGNKYQTIDNYQPYPCAEDEECGTDEYCASPTRGGDAGVQICLACRKRRKRCMRHAMCCPGNYCKNGICVSSDQNHFRGEIEETITESFGNDHSTLDGYSRRTTLSSKMYHTKGQEGSVCLRSSDCASGLCCARHFWSKICKPVLKEGQVCTKHRRKGSHGLEIFQRCYCGEGLSCRIQKDHHQASNSSRLHTCQRH",level of LRP6 protein,[1],did not alter
same,level of LRP6 protein,[2],did not alter
same,S and G2/M stage percentage,HUVEC,decreased
same,percentage of cells in the G0/G1 stage,HUVEC,increased
same,S and G2/M stage percentage,SW480,decreased
same,percentage of cells in the G0/G1 stage,SW480,increased
same,S and G2/M stage percentage,HCT116,decreased
same,percentage of cells in the G0/G1 stage,HCT116,increased
same,level of LRP6 protein,[3],did not alter
